# Measurements as given in patent US20090069239.
# “And” between values parts separate entries of the source, which are not always exact repeats. Equal values may be shown once.
# Target: protamine
protein,measurement,value
"iridoptin (37-kDa polypeptide expressed from the subgenic istk fragment of Chilo iridescent virus, 6xHis-tagged, Pichia-expressed) (protein) MDLKDEFIQIIKKYSELSLKESENETKKYIQEVFNVSLSEVFIKEPSKQETLKQEPTQETGCIYIFKKGKNIGQKCGSGKSKFCYKHKKNDLNIKVNQERNIKKPIPKPIPTNKIETGSVINQNWFIGTSIGKGGFGEIYSAAKFNDHGNYKDDDFSFAIKIEPKSGPLFVEMHFYKRVIVEKEIEKFKLQKNIQYLGLPKYYGSGLYNDYRYIVMEKYDSNIDKLFRNGDLNSSTILQIGIQILNIVEYIHSKGYIHADIKGENILLKENDTSHIYLVDFGLCSRYSNG","SPECIFIC ACTIVITY (CPM/µg TOTAL PROTEIN), protein kinase assay (CPM/µg total protein)",1110 and 895
same,"SPECIFIC ACTIVITY (CPM/µg TOTAL PROTEIN), protein kinase assay, mean (CPM/µg total protein)",1000
